What was measured:
Alcadein β = tested on: T1, Alcadein β
T1 sequence: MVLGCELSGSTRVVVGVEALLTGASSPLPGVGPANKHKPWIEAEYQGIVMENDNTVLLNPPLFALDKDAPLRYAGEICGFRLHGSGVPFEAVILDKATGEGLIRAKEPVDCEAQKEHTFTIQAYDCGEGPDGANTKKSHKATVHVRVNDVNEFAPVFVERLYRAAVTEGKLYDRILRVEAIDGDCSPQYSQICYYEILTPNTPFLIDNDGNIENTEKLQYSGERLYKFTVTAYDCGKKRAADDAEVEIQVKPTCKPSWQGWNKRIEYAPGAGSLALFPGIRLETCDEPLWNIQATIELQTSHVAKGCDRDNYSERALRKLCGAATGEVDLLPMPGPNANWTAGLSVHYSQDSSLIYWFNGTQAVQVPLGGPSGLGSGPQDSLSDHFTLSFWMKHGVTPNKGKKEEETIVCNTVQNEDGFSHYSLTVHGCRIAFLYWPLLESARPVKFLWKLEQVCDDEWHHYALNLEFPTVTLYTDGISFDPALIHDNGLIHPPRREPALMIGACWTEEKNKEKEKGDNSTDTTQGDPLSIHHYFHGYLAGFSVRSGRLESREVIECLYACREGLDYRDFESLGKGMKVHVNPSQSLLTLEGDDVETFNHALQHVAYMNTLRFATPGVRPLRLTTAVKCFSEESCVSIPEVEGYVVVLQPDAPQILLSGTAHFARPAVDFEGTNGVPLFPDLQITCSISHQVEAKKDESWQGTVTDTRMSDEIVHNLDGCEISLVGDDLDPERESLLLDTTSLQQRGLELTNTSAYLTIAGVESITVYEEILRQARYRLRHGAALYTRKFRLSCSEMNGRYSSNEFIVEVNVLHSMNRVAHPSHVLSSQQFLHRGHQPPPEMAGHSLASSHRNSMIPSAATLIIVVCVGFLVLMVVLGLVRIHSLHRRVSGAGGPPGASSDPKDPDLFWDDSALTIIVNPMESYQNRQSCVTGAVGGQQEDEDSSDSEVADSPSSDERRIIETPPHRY

Alcadein α (human Alcα1) = tested on: T2, Alcadein α (human Alcα1)
T2 sequence: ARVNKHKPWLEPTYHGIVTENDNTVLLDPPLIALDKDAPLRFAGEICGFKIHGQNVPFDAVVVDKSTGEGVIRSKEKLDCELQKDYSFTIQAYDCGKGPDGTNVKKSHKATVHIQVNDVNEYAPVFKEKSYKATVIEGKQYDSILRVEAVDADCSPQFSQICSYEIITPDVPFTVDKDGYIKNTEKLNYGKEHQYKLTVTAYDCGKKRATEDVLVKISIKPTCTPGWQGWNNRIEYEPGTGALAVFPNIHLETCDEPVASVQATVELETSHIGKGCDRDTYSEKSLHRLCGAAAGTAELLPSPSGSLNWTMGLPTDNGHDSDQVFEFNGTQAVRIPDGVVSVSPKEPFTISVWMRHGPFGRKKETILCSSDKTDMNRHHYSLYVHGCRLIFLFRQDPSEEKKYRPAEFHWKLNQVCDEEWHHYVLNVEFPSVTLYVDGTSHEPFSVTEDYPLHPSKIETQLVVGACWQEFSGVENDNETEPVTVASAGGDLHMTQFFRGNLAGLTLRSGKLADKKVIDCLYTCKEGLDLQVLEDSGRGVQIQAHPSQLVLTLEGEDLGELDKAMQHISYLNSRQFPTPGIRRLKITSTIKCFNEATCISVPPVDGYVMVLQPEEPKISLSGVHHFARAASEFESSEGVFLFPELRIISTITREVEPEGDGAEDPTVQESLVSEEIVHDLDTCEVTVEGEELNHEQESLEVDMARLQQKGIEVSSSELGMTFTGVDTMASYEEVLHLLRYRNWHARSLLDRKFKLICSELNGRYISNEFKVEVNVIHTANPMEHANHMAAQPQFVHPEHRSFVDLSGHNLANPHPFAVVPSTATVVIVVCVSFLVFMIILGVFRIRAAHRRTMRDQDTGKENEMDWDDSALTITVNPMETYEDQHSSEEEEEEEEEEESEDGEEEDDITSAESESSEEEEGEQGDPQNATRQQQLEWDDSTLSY

Alcadein γ = tested on: T3, Alcadein γ
T3 sequence: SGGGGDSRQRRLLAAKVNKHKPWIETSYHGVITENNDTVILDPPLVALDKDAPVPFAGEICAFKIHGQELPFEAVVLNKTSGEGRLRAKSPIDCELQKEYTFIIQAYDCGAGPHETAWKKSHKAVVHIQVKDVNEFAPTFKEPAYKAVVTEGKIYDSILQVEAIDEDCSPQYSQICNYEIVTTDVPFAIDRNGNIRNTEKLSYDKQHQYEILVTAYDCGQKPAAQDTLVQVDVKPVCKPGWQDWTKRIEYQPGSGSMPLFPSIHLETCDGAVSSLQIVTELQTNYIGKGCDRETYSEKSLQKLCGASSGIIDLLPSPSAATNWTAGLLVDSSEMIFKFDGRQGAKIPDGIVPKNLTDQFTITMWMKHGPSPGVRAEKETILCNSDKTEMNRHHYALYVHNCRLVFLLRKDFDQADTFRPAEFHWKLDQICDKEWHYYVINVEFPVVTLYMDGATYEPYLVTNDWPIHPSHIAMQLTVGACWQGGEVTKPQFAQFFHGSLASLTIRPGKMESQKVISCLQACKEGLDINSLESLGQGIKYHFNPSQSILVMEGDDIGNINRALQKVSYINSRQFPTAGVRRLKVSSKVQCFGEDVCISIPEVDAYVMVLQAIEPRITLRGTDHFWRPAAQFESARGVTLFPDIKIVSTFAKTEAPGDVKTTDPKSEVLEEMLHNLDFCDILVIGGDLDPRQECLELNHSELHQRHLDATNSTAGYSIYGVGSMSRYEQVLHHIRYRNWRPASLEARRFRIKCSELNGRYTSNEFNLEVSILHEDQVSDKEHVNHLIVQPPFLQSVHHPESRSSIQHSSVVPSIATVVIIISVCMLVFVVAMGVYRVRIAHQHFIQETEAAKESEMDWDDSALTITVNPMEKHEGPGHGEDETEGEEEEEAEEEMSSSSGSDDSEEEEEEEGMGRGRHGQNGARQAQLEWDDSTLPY

presenilin (endogenous, HEK293 cells)
fragments containing the C-terminal from incubated membrane fractions, Western blot (Alcadein β): such fragments were not detected in the samples to which the presenilin inhibitor was added
fragments containing the C-terminal (Alcα-ICD) from incubated membrane fractions, Western blot (Alcadein α (human Alcα1)): such fragments were not detected in the samples to which the presenilin inhibitor was added
fragments containing the C-terminal from incubated membrane fractions, Western blot (Alcadein γ): such fragments were not detected in the samples to which the presenilin inhibitor was added

Source: patent US20110014635
